In doi:10.1101/2024.10.21.619360:

Columns and labels:
[1] = target: bovine complement factor I (bovine (B. taurus)); assay: BLI; biotinylated bovine FI (150 nM) on streptavidin biosensors, PmSLP-1 as analyte at 0-1600 nM, Octet RED96, 30°C, PBS pH 7.4 with 0.01% Tween 20; steady-state analysis, one-site fit
[2] = target: bovine complement factor I; assay: biolayer interferometry; conditions: n=3; parent: 27 ± 6
[3] = target: bovine complement factor I; assay: BLI; conditions: 1600 nM PmSLP-1 mutant; biotinylated bovine FI on streptavidin sensors; 3 independent replicates; read off a plot
[4] = target: bovine complement factor I (bovine (B. taurus)); assay: cryo-EM structure; PmSLP-1 and FI mixed 5:1, complex isolated on Superdex Increase 200 in PBS pH 7.4, 0.25 mg/mL on gold grids, 40° tilt; dimer of the complex, protomer refined to 3.5 Å

How did the Kd [1] turn out when “PmSLP-1^95 (PmSLP-1^95-318 SERp) (domain or fragment)” was run?
Its Kd is 39 nM.

Which Kd [2] does the source give for “PmSLP-1^15 (PmSLP-1^15-318), surface lipoprotein of Pasteurella multocida strain 36950 L127D” here?
Its Kd is 85 nM.

What about the response [3] of the same substance?
The response was 0.23 AU.

With “PmSLP-1^15 (PmSLP-1^15-318), surface lipoprotein of Pasteurella multocida strain 36950 R167A” as the substance, how does the Kd [2] read?
The Kd was 107 nM.

What about the response [3] of the same substance?
Its response is 0.18 AU.

With “PmSLP-1^15 (PmSLP-1^15-318), surface lipoprotein of Pasteurella multocida strain 36950 D210A” as the substance, how does the Kd [2] read?
Its Kd is 272 nM.

And the response [3]?
Its response is 0.14 AU.

“PmSLP-1^15 (PmSLP-1^15-318), surface lipoprotein of Pasteurella multocida strain 36950 D121A” was tested. Which Kd [2] did it give?
Its Kd is 117 nM.

And the response [3]?
The response was 0.19 AU.

Which stoichiometry N [4] does the source give for bovine complement factor I (enzyme) here?
Its stoichiometry N is 2.

Which Kd [1] does the source give for “PmSLP-1^15 (PmSLP-1^15-318), surface lipoprotein of Pasteurella multocida strain 36950 (domain or fragment)” here?
Its Kd is 27 nM.

For “PmSLP-1^15 (PmSLP-1^15-318), surface lipoprotein of Pasteurella multocida strain 36950 I133D”, which Kd [2] is on record?
Its Kd is 43 nM.

What about the response [3] of the same substance?
The response was 0.24 AU.

How did the Kd [2] turn out when “PmSLP-1^15 (PmSLP-1^15-318), surface lipoprotein of Pasteurella multocida strain 36950 K236E” was run?
The Kd was 33 nM.

What about the response [3] of the same substance?
The response was 0.24 AU.

“PmSLP-1^15 (PmSLP-1^15-318), surface lipoprotein of Pasteurella multocida strain 36950 E240A” was tested. Which response [3] did it give?
Its response is -0.0015 AU.

With “PmSLP-1^15 (PmSLP-1^15-318), surface lipoprotein of Pasteurella multocida strain 36950 D124R” as the substance, how does the Kd [2] read?
The Kd was 53 nM.

What about the response [3] of the same substance?
The response was 0.24 AU.

Which results are given for “PmSLP-1^15 (PmSLP-1^15-318), surface lipoprotein of Pasteurella multocida strain 36950 E132R”?
Kd [2]: 28 nM; response [3]: 0.22 AU
